Test results as given in patent US20130011378A1, “Stable formulations of a hyaluronan-degrading enzyme” (priority 2011, published 2013).

Test: RP-HPLC: insulin apparent solubility / percent recovery
Details: for Solubility of Lispro, % remaining of the original concentration: 7 days at 2-8° C.
Outline: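 Vial samples withdrawn at each time point, centrifuged, held at 4 °C, run in duplicate by RP-HPLC. Apparent solubility = combined insulin main and desamido peak areas as percent versus standards/initial formulation; purity = main insulin peak as percent of all insulin species.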

With “insulin Lispro: insulin analog LysB28, ProB29; SEQ ID NO:103 and 148” the “Solubility of Lispro, % remaining of the original concentration” value (0.2% methylparaben + […] m-cresol, pH 6.6, NaCl 50 mM) was 42.0%, the “Solubility of Lispro, % remaining of the original concentration” value (0.2% methylparaben + […] m-cresol, pH 6.6, NaCl 80 mM) was 28.2% and the “Solubility of Lispro, % remaining of the original concentration” value (0.2% methylparaben + […] m-cresol, pH 6.6, NaCl 110 mM) was 24.1%. For the same substance, the “Solubility of Lispro, % remaining of the original concentration” value (0.2% methylparaben + […] m-cresol, pH 6.6, NaCl 140 mM) was 25.9%, the “Solubility of Lispro, % remaining of the original concentration” value (0.2% methylparaben + […] m-cresol, pH 6.8, NaCl 50 mM) was 82.3% and the “Solubility of Lispro, % remaining of the original concentration” value (0.2% methylparaben + […] m-cresol, pH 6.8, NaCl 80 mM) was 62.6%. The “Solubility of Lispro, % remaining of the original concentration” value (0.2% methylparaben + […] m-cresol, pH 6.8, NaCl 110 mM) was 47.8%, the “Solubility of Lispro, % remaining of the original concentration” value (0.2% methylparaben + […] m-cresol, pH 6.8, NaCl 140 mM) was 42.0% and the “Solubility of Lispro, % remaining of the original concentration” value (0.2% methylparaben + […] m-cresol, pH 7.0, NaCl 50 mM) was 95.3%. For the same substance, the “Solubility of Lispro, % remaining of the original concentration” value (0.2% methylparaben + […] m-cresol, pH 7.0, NaCl 80 mM) was 98.1%, the “Solubility of Lispro, % remaining of the original concentration” value (0.2% methylparaben + […] m-cresol, pH 7.0, NaCl 110 mM) was 94.1% and the “Solubility of Lispro, % remaining of the original concentration” value (0.2% methylparaben + […] m-cresol, pH 7.0, NaCl 140 mM) was 65.6%. For the same substance, the “Solubility of Lispro, % remaining of the original concentration” value (0.2% methylparaben + […] m-cresol, pH 7.2, NaCl 50 mM) was 95.7%, the “Solubility of Lispro, % remaining of the original concentration” value (0.2% methylparaben + […] m-cresol, pH 7.2, NaCl 80 mM) was 97.9% and the “Solubility of Lispro, % remaining of the original concentration” value (0.2% methylparaben + […] m-cresol, pH 7.2, NaCl 110 mM) was 99.6%. The “Solubility of Lispro, % remaining of the original concentration” value (0.2% methylparaben + […] m-cresol, pH 7.2, NaCl 140 mM) was 98.0%, the “Solubility of Lispro, % remaining of the original concentration” value (0.2% methylparaben + […] m-cresol, pH 7.4, NaCl 50 mM) was 95.6% and the “Solubility of Lispro, % remaining of the original concentration” value (0.2% methylparaben + […] m-cresol, pH 7.4, NaCl 80 mM) was 98.2%. The “Solubility of Lispro, % remaining of the original concentration” value (0.2% methylparaben + […] m-cresol, pH 7.4, NaCl 110 mM) was 99.9%, the “Solubility of Lispro, % remaining of the original concentration” value (0.2% methylparaben + […] m-cresol, pH 7.4, NaCl 140 mM) was 98.5% and the “Solubility of Lispro, % remaining of the original concentration” value (0.2% methylparaben + […] m-cresol, pH 7.6, NaCl 50 mM) was 95.7%. The “Solubility of Lispro, % remaining of the original concentration” value (0.2% methylparaben + […] m-cresol, pH 7.6, NaCl 80 mM) was 98.3%, the “Solubility of Lispro, % remaining of the original concentration” value (0.2% methylparaben + […] m-cresol, pH 7.6, NaCl 110 mM) was 100.2% and the “Solubility of Lispro, % remaining of the original concentration” value (0.2% methylparaben + […] m-cresol, pH 7.6, NaCl 140 mM) was 98.8%. The “Solubility of Lispro, % remaining of the original concentration” value (0.2% phenol + […] m-cresol, pH 6.6, NaCl 50 mM) was 52.8%, the “Solubility of Lispro, % remaining of the original concentration” value (0.2% phenol + […] m-cresol, pH 6.6, NaCl 80 mM) was 32.8% and the “Solubility of Lispro, % remaining of the original concentration” value (0.2% phenol + […] m-cresol, pH 6.6, NaCl 110 mM) was 26.0%. For the same substance, the “Solubility of Lispro, % remaining of the original concentration” value (0.2% phenol + […] m-cresol, pH 6.8, NaCl 50 mM) was 91.4%, the “Solubility of Lispro, % remaining of the original concentration” value (0.2% phenol + […] m-cresol, pH 6.8, NaCl 80 mM) was 65.1% and the “Solubility of Lispro, % remaining of the original concentration” value (0.2% phenol + […] m-cresol, pH 6.8, NaCl 110 mM) was 44.9%. For the same substance, the “Solubility of Lispro, % remaining of the original concentration” value (0.2% phenol + […] m-cresol, pH 6.8, NaCl 140 mM) was 40.4%, the “Solubility of Lispro, % remaining of the original concentration” value (0.2% phenol + […] m-cresol, pH 7.0, NaCl 50 mM) was 97.4% and the “Solubility of Lispro, % remaining of the original concentration” value (0.2% phenol + […] m-cresol, pH 7.0, NaCl 80 mM) was 95.5%. The “Solubility of Lispro, % remaining of the original concentration” value (0.2% phenol + […] m-cresol, pH 7.0, NaCl 110 mM) was 75.2%, the “Solubility of Lispro, % remaining of the original concentration” value (0.2% phenol + […] m-cresol, pH 7.0, NaCl 140 mM) was 65.3% and the “Solubility of Lispro, % remaining of the original concentration” value (0.2% phenol + […] m-cresol, pH 7.2, NaCl 50 mM) was 97.6%. The “Solubility of Lispro, % remaining of the original concentration” value (0.2% phenol + […] m-cresol, pH 7.2, NaCl 80 mM) was 97.4%, the “Solubility of Lispro, % remaining of the original concentration” value (0.2% phenol + […] m-cresol, pH 7.2, NaCl 110 mM) was 95.2% and the “Solubility of Lispro, % remaining of the original concentration” value (0.2% phenol + […] m-cresol, pH 7.2, NaCl 140 mM) was 90.8%. For the same substance, the “Solubility of Lispro, % remaining of the original concentration” value (0.2% phenol + […] m-cresol, pH 7.4, NaCl 50 mM) was 97.7%, the “Solubility of Lispro, % remaining of the original concentration” value (0.2% phenol + […] m-cresol, pH 7.4, NaCl 80 mM) was 97.6% and the “Solubility of Lispro, % remaining of the original concentration” value (0.2% phenol + […] m-cresol, pH 7.4, NaCl 110 mM) was 97.0%. For the same substance, the “Solubility of Lispro, % remaining of the original concentration” value (0.2% phenol + […] m-cresol, pH 7.4, NaCl 140 mM) was 96.9%, the “Solubility of Lispro, % remaining of the original concentration” value (0.2% phenol + […] m-cresol, pH 7.6, NaCl 50 mM) was 97.5% and the “Solubility of Lispro, % remaining of the original concentration” value (0.2% phenol + […] m-cresol, pH 7.6, NaCl 80 mM) was 97.7%. For the same substance, the “Solubility of Lispro, % remaining of the original concentration” value (0.2% phenol + […] m-cresol, pH 7.6, NaCl 110 mM) was 97.3%, the “Solubility of Lispro, % remaining of the original concentration” value (0.2% phenol + […] m-cresol, pH 7.6, NaCl 140 mM) was 96.8% and the “time insulin Lispro stable (soluble)” value (2-8° C., pH 7.0, 50 mM NaCl) was 5 months. The Solubility (2-8° C., pH 7.0, after 1 week at 80, 110 or 140 mM NaCl) was “below 65%”, the “time insulin Lispro stable (soluble)” value (2-8° C., pH 7.6, 140 mM NaCl) was 2 weeks and the “time insulin Lispro stable (soluble)” value (2-8° C., pH 7.6, 50 and 80 mM NaCl, […] m-cresol, […] phenol) was “at least 12 months”. For the same substance, the “Solubility of Lispro, % remaining of the original concentration” value ([…] phenol + […] m-cresol, pH 6.6, NaCl 50 mM) was 60.3%, the “Solubility of Lispro, % remaining of the original concentration” value ([…] phenol + […] m-cresol, pH 6.6, NaCl 80 mM) was 43.3% and the “Solubility of Lispro, % remaining of the original concentration” value ([…] phenol + […] m-cresol, pH 6.6, NaCl 110 mM) was 24.2%. The “Solubility of Lispro, % remaining of the original concentration” value ([…] phenol + […] m-cresol, pH 6.6, NaCl 140 mM) was 27.7%, the “Solubility of Lispro, % remaining of the original concentration” value ([…] phenol + […] m-cresol, pH 6.8, NaCl 50 mM) was 93.6% and the “Solubility of Lispro, % remaining of the original concentration” value ([…] phenol + […] m-cresol, pH 6.8, NaCl 80 mM) was 60.8%. For the same substance, the “Solubility of Lispro, % remaining of the original concentration” value ([…] phenol + […] m-cresol, pH 6.8, NaCl 110 mM) was 44.9%, the “Solubility of Lispro, % remaining of the original concentration” value ([…] phenol + […] m-cresol, pH 6.8, NaCl 140 mM) was 35.9% and the “Solubility of Lispro, % remaining of the original concentration” value ([…] phenol + […] m-cresol, pH 7.0, NaCl 50 mM) was 98.7%. The “Solubility of Lispro, % remaining of the original concentration” value ([…] phenol + […] m-cresol, pH 7.0, NaCl 80 mM) was 96.4%, the “Solubility of Lispro, % remaining of the original concentration” value ([…] phenol + […] m-cresol, pH 7.0, NaCl 110 mM) was 77.0% and the “Solubility of Lispro, % remaining of the original concentration” value ([…] phenol + […] m-cresol, pH 7.0, NaCl 140 mM) was 61.2%. The “Solubility of Lispro, % remaining of the original concentration” value ([…] phenol + […] m-cresol, pH 7.2, NaCl 50 mM) was 100.5%, the “Solubility of Lispro, % remaining of the original concentration” value ([…] phenol + […] m-cresol, pH 7.2, NaCl 80 mM) was 99.2% and the “Solubility of Lispro, % remaining of the original concentration” value ([…] phenol + […] m-cresol, pH 7.2, NaCl 110 mM) was 97.3%. For the same substance, the “Solubility of Lispro, % remaining of the original concentration” value ([…] phenol + […] m-cresol, pH 7.2, NaCl 140 mM) was 93.1%, the “Solubility of Lispro, % remaining of the original concentration” value ([…] phenol + […] m-cresol, pH 7.4, NaCl 50 mM) was 100.8% and the “Solubility of Lispro, % remaining of the original concentration” value ([…] phenol + […] m-cresol, pH 7.4, NaCl 80 mM) was 101.8%. The “Solubility of Lispro, % remaining of the original concentration” value ([…] phenol + […] m-cresol, pH 7.4, NaCl 110 mM) was 100.7%, the “Solubility of Lispro, % remaining of the original concentration” value ([…] phenol + […] m-cresol, pH 7.4, NaCl 140 mM) was 98.4% and the “Solubility of Lispro, % remaining of the original concentration” value ([…] phenol + […] m-cresol, pH 7.6, NaCl 50 mM) was 100.9%. The “Solubility of Lispro, % remaining of the original concentration” value ([…] phenol + […] m-cresol, pH 7.6, NaCl 80 mM) was 102.1%, the “Solubility of Lispro, % remaining of the original concentration” value ([…] phenol + […] m-cresol, pH 7.6, NaCl 110 mM) was 101.6% and the “Solubility of Lispro, % remaining of the original concentration” value ([…] phenol + […] m-cresol, pH 7.6, NaCl 140 mM) was 101.3%.
